Experimental data taken from article PMC12048488.

Target: HTT-Q20 (endogenous knock-in huntingtin: mouse Htt with humanized HTT exon 1, normal polyQ) (human | mouse)
Assay: affinity purification with mass spectrometry; evaluation of antibodies: IP-MS from whole brain and striatum lysates of 8-week Q20 and Q140 mice with EPR5526, 2B7-4C9, 4E10-3E10 or 138-139 antibodies against mIgG controls

stoichiometry N (HTT:HAP40 ratio): 1
B1: HAP40 (F8a1), Huntingtin-associated protein 40 (natural protein)
chain: MAAGSASSLGGGAWPGSEAGDFLARYRQVSNKLKKRFLRKPNVAEAGEQFAQLARELRAQECLPYAAWCQLAVARCQQALFHGPGEALALTEAARLFLRQECDARQRLGCPAAYGEPLQAAASALGAAVRLHLELGQPAAAAALCLELAAALRAVGQPAAAAGHFQRAAQLHLPLMPLAALQALGDAASCQLLARDYTGALALFTRMQRLAREHGGHPVQQLELLPQPPSGPQPPLSGPQPRPVLGSTLPLPQPPDHAPGSVAPSPGTLGAFADVLVRCEVSRVLLLLLLQPPPAKLLPEHAQTLEKYSWEAFDGHGQDTSGQLPEELFLLLQSLVMAAQEKDTEGIKKLQVEMWPLLTAEQNHLLHLVLQETISPSGQGV
